B1: CSTF3 (parent)
chain: YVPEKVKKAEKKLEENPYDLDAWS

Variants of: B1
Assay: protein stability index of a GFP-peptide fusion (GPS, HEK-293T) (PSI 1-6); higher = more stable
Details: c terminus: a fixed tail appended
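Note: lentivirally expressed fusions sorted by FACS into six bins by GFP to DsRed ratio, PSI derived from sequencing read proportions per bin multiplied by bin number.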

| Variant | protein stability index |
| --- | --- |
| AVPEKVKKAEKKLEENPYDLDAWS | 5.5 |
| CVPEKVKKAEKKLEENPYDLDAWS | 4.97 |
| DVPEKVKKAEKKLEENPYDLDAWS | 5.2 |
| EVPEKVKKAEKKLEENPYDLDAWS | 5.59 |
| FVPEKVKKAEKKLEENPYDLDAWS | 2.56 |
| GVPEKVKKAEKKLEENPYDLDAWS | 5.31 |
| HVPEKVKKAEKKLEENPYDLDAWS | 3.9 |
| IVPEKVKKAEKKLEENPYDLDAWS | 4.63 |
| KVPEKVKKAEKKLEENPYDLDAWS | 5.08 |
| LVPEKVKKAEKKLEENPYDLDAWS | 4.43 |
| MVPEKVKKAEKKLEENPYDLDAWS | 4.81 |
| NVPEKVKKAEKKLEENPYDLDAWS | 5.14 |
| PVPEKVKKAEKKLEENPYDLDAWS | 5.24 |
| QVPEKVKKAEKKLEENPYDLDAWS | 5.31 |
| RVPEKVKKAEKKLEENPYDLDAWS | 5.17 |
| SVPEKVKKAEKKLEENPYDLDAWS | 5.23 |
| TVPEKVKKAEKKLEENPYDLDAWS | 4.88 |
| VVPEKVKKAEKKLEENPYDLDAWS | 4.97 |
| WVPEKVKKAEKKLEENPYDLDAWS | 4.24 |
| YAPEKVKKAEKKLEENPYDLDAWS | 1.92 |
| YCPEKVKKAEKKLEENPYDLDAWS | 2.32 |
| YDPEKVKKAEKKLEENPYDLDAWS | 4.2 |
| YEPEKVKKAEKKLEENPYDLDAWS | 4.84 |
| YFPEKVKKAEKKLEENPYDLDAWS | 4.31 |

| Variant | protein stability index |
| --- | --- |
| YGPEKVKKAEKKLEENPYDLDAWS | 4.5 |
| YHPEKVKKAEKKLEENPYDLDAWS | 2.25 |
| YIPEKVKKAEKKLEENPYDLDAWS | 2.33 |
| YKPEKVKKAEKKLEENPYDLDAWS | 4.25 |
| YLPEKVKKAEKKLEENPYDLDAWS | 4.51 |
| YMPEKVKKAEKKLEENPYDLDAWS | 3.92 |
| YNPEKVKKAEKKLEENPYDLDAWS | 4.47 |
| YPPEKVKKAEKKLEENPYDLDAWS | 3.87 |
| YQPEKVKKAEKKLEENPYDLDAWS | 4.07 |
| YRPEKVKKAEKKLEENPYDLDAWS | 4.48 |
| YSPEKVKKAEKKLEENPYDLDAWS | 4.67 |
| YTPEKVKKAEKKLEENPYDLDAWS | 3.18 |
| YWPEKVKKAEKKLEENPYDLDAWS | 3.94 |
| YYPEKVKKAEKKLEENPYDLDAWS | 4.37 |
| YVAEKVKKAEKKLEENPYDLDAWS | 2.27 |
| YVCEKVKKAEKKLEENPYDLDAWS | 2.46 |
| YVDEKVKKAEKKLEENPYDLDAWS | 2.69 |
| YVEEKVKKAEKKLEENPYDLDAWS | 2.7 |
| YVFEKVKKAEKKLEENPYDLDAWS | 1.89 |
| YVGEKVKKAEKKLEENPYDLDAWS | 2.28 |
| YVHEKVKKAEKKLEENPYDLDAWS | 2.47 |
| YVIEKVKKAEKKLEENPYDLDAWS | 1.99 |
| YVKEKVKKAEKKLEENPYDLDAWS | 2.15 |
| YVLEKVKKAEKKLEENPYDLDAWS | 1.74 |

| Variant | protein stability index |
| --- | --- |
| YVMEKVKKAEKKLEENPYDLDAWS | 1.79 |
| YVNEKVKKAEKKLEENPYDLDAWS | 2.12 |
| YVQEKVKKAEKKLEENPYDLDAWS | 1.89 |
| YVREKVKKAEKKLEENPYDLDAWS | 2.44 |
| YVSEKVKKAEKKLEENPYDLDAWS | 2.23 |
| YVTEKVKKAEKKLEENPYDLDAWS | 2.35 |
| YVVEKVKKAEKKLEENPYDLDAWS | 1.97 |
| YVWEKVKKAEKKLEENPYDLDAWS | 1.76 |
| YVYEKVKKAEKKLEENPYDLDAWS | 3.21 |
| YVPAKVKKAEKKLEENPYDLDAWS | 3.03 |
| YVPCKVKKAEKKLEENPYDLDAWS | 2.43 |
| YVPFKVKKAEKKLEENPYDLDAWS | 2.49 |
| YVPGKVKKAEKKLEENPYDLDAWS | 2.58 |
| YVPHKVKKAEKKLEENPYDLDAWS | 2.44 |
| YVPIKVKKAEKKLEENPYDLDAWS | 2.8 |
| YVPKKVKKAEKKLEENPYDLDAWS | 3.35 |
| YVPMKVKKAEKKLEENPYDLDAWS | 1.9 |
| YVPNKVKKAEKKLEENPYDLDAWS | 2.19 |
| YVPPKVKKAEKKLEENPYDLDAWS | 2.3 |
| YVPQKVKKAEKKLEENPYDLDAWS | 3.41 |
| YVPRKVKKAEKKLEENPYDLDAWS | 2.8 |
| YVPSKVKKAEKKLEENPYDLDAWS | 1.62 |
| YVPTKVKKAEKKLEENPYDLDAWS | 2.56 |
| YVPVKVKKAEKKLEENPYDLDAWS | 2.69 |

| Variant | protein stability index |
| --- | --- |
| YVPWKVKKAEKKLEENPYDLDAWS | 2.28 |
| YVPYKVKKAEKKLEENPYDLDAWS | 3.67 |
| YVPEAVKKAEKKLEENPYDLDAWS | 1.62 |
| YVPECVKKAEKKLEENPYDLDAWS | 2.71 |
| YVPEDVKKAEKKLEENPYDLDAWS | 1.9 |
| YVPEEVKKAEKKLEENPYDLDAWS | 1.77 |
| YVPEFVKKAEKKLEENPYDLDAWS | 2.19 |
| YVPEGVKKAEKKLEENPYDLDAWS | 2.25 |
| YVPEHVKKAEKKLEENPYDLDAWS | 2.28 |
| YVPEIVKKAEKKLEENPYDLDAWS | 2.95 |
| YVPELVKKAEKKLEENPYDLDAWS | 2.07 |
| YVPEMVKKAEKKLEENPYDLDAWS | 2.04 |
| YVPENVKKAEKKLEENPYDLDAWS | 3.5 |
| YVPEPVKKAEKKLEENPYDLDAWS | 2.55 |
| YVPEQVKKAEKKLEENPYDLDAWS | 2.73 |
| YVPERVKKAEKKLEENPYDLDAWS | 2.72 |
| YVPESVKKAEKKLEENPYDLDAWS | 3.44 |
| YVPETVKKAEKKLEENPYDLDAWS | 2.93 |
| YVPEVVKKAEKKLEENPYDLDAWS | 2.32 |
| YVPEWVKKAEKKLEENPYDLDAWS | 2.45 |
| YVPEYVKKAEKKLEENPYDLDAWS | 3.04 |
| YVPEKDKKAEKKLEENPYDLDAWS | 2.22 |
